Measured values from patent US7951356B1, “Tissue factor compositions and kits for coagulation and tumor treatment” (Board of Regents, The University of Texas System, priority 1997, dated 2011).

B1: H6—N′-cys-tTF219: tTF219 with (His)6 and a Cys in front of the N′-terminus; SEQ ID NO:2 (protein)
chain: HHHHHHAMALVPRGSCGTTNTVAAYNLTWKSTNFKTILEWEPKPVNQVYTVQISTKSGDWKSKCFYTTDTECDLTDEIVKDVKQTYLARVFSYPAGNVESTGSAGEPLYENSPEFTPYLETNLGQPTIQSFEQVGTKVNVTVEDERTLVRRNNTFLSLRDVFGKDLIYTLYYWKSSSSGKKTAKTNTNEFLIDVDKGENYCFSVQAVIPSRTVNRKSTDSPVECMGQEKGEFRE
B2: Fab′-H6—N′-cys-tTF219 (conjugate)
chain: HHHHHHAMALVPRGSCGTTNTVAAYNLTWKSTNFKTILEWEPKPVNQVYTVQISTKSGDWKSKCFYTTDTECDLTDEIVKDVKQTYLARVFSYPAGNVESTGSAGEPLYENSPEFTPYLETNLGQPTIQSFEQVGTKVNVTVEDERTLVRRNNTFLSLRDVFGKDLIYTLYYWKSSSSGKKTAKTNTNEFLIDVDKGENYCFSVQAVIPSRTVNRKSTDSPVECMGQEKGEFRE
modifications: left off: another chain or arm of the molecule; large carriers
B3: IgG-H6—N′-cys-tTF219 (conjugate)
chain: HHHHHHAMALVPRGSCGTTNTVAAYNLTWKSTNFKTILEWEPKPVNQVYTVQISTKSGDWKSKCFYTTDTECDLTDEIVKDVKQTYLARVFSYPAGNVESTGSAGEPLYENSPEFTPYLETNLGQPTIQSFEQVGTKVNVTVEDERTLVRRNNTFLSLRDVFGKDLIYTLYYWKSSSSGKKTAKTNTNEFLIDVDKGENYCFSVQAVIPSRTVNRKSTDSPVECMGQEKGEFRE
modifications: left off: large carriers
B4: H6—N′ cys-tTF219 dimer: chemically conjugated dimer of SEQ ID NO:2 (protein)
chain: HHHHHHAMALVPRGSCGTTNTVAAYNLTWKSTNFKTILEWEPKPVNQVYTVQISTKSGDWKSKCFYTTDTECDLTDEIVKDVKQTYLARVFSYPAGNVESTGSAGEPLYENSPEFTPYLETNLGQPTIQSFEQVGTKVNVTVEDERTLVRRNNTFLSLRDVFGKDLIYTLYYWKSSSSGKKTAKTNTNEFLIDVDKGENYCFSVQAVIPSRTVNRKSTDSPVECMGQEKGEFRE
modifications: chemically conjugated dimer
B5: H6-tTF221-cys-C′: tTF219 mutated to carry Ile-Phe-Cys after amino acid 219; SEQ ID NO:7 (protein)
chain: HHHHHHAMALVPRGSGTTNTVAAYNLTWKSTNFKTILEWEPKPVNQVYTVQISTKSGDWKSKCFYTTDTECDLTDEIVKDVKQTYLARVFSYPAGNVESTGSAGEPLYENSPEFTPYLETNLGQPTIQSFEQVGTKVNVTVEDERTLVRRNNTFLSLRDVFGKDLIYTLYYWKSSSSGKKTAKTNTNEFLIDVDKGENYCFSVQAVIPSRTVNRKSTDSPVECMGQEKGEFREIFC
B6: H6-tTF221-cys-C′ dimer: chemically conjugated dimer of SEQ ID NO:7 (protein)
chain: HHHHHHAMALVPRGSGTTNTVAAYNLTWKSTNFKTILEWEPKPVNQVYTVQISTKSGDWKSKCFYTTDTECDLTDEIVKDVKQTYLARVFSYPAGNVESTGSAGEPLYENSPEFTPYLETNLGQPTIQSFEQVGTKVNVTVEDERTLVRRNNTFLSLRDVFGKDLIYTLYYWKSSSSGKKTAKTNTNEFLIDVDKGENYCFSVQAVIPSRTVNRKSTDSPVECMGQEKGEFREIFC
modifications: chemically conjugated dimer
B7: “standard” tTF: “standard” tTF219 preparation obtained from Dr. Thomas Edgington (The Scripps Research Institute) (protein)
chain: GSGTTNTVAAYNLTWKSTNFKTILEWEPKPVNQVYTVQISTKSGDWKSKCFYTTDTECDLTDEIVKDVKQTYLARVFSYPAGNVESTGSAGEPLYENSPEFTPYLETNLGQPTIQSFEQVGTKVNVTVEDERTLVRRNNTFLSLRDVFGKDLIYTLYYWKSSSSGKKTAKTNTNEFLIDVDKGENYCFSVQAVIPSRTVNRKSTDSPVECMGQEKGEFRE
B8: tTF221-cys-C′: tTF221-cys-C′, tested beside H6-tTF221-cys-C′ (FIG. 7) (protein)
chain: GSGTTNTVAAYNLTWKSTNFKTILEWEPKPVNQVYTVQISTKSGDWKSKCFYTTDTECDLTDEIVKDVKQTYLARVFSYPAGNVESTGSAGEPLYENSPEFTPYLETNLGQPTIQSFEQVGTKVNVTVEDERTLVRRNNTFLSLRDVFGKDLIYTLYYWKSSSSGKKTAKTNTNEFLIDVDKGENYCFSVQAVIPSRTVNRKSTDSPVECMGQEKGEFREIFC
B9: tTF220-cys-C′: tTF220-cys-C′, tested beside H6-tTF220-cys-C′ (FIG. 6) (protein)
chain: GSGTTNTVAAYNLTWKSTNFKTILEWEPKPVNQVYTVQISTKSGDWKSKCFYTTDTECDLTDEIVKDVKQTYLARVFSYPAGNVESTGSAGEPLYENSPEFTPYLETNLGQPTIQSFEQVGTKVNVTVEDERTLVRRNNTFLSLRDVFGKDLIYTLYYWKSSSSGKKTAKTNTNEFLIDVDKGENYCFSVQAVIPSRTVNRKSTDSPVECMGQEKGEFREIC
B10: H6-tTF220-cys-C′: tTF219 mutated to carry Ile-Cys after amino acid 219; SEQ ID NO:6 (protein)
chain: HHHHHHAMALVPRGSGTTNTVAAYNLTWKSTNFKTILEWEPKPVNQVYTVQISTKSGDWKSKCFYTTDTECDLTDEIVKDVKQTYLARVFSYPAGNVESTGSAGEPLYENSPEFTPYLETNLGQPTIQSFEQVGTKVNVTVEDERTLVRRNNTFLSLRDVFGKDLIYTLYYWKSSSSGKKTAKTNTNEFLIDVDKGENYCFSVQAVIPSRTVNRKSTDSPVECMGQEKGEFREIC
B11: H6-tTF219-cys-C′: tTF219 with (His)6 and a Cys after amino acid 219; SEQ ID NO:3 (protein)
chain: HHHHHHAMALVPRGSGTTNTVAAYNLTWKSTNFKTILEWEPKPVNQVYTVQISTKSGDWKSKCFYTTDTECDLTDEIVKDVKQTYLARVFSYPAGNVESTGSAGEPLYENSPEFTPYLETNLGQPTIQSFEQVGTKVNVTVEDERTLVRRNNTFLSLRDVFGKDLIYTLYYWKSSSSGKKTAKTNTNEFLIDVDKGENYCFSVQAVIPSRTVNRKSTDSPVECMGQEKGEFREC

What was measured:
[1] = system: citrated mouse plasma; test: In vitro coagulation assay: tTF constructs localized on A20 lymphoma cells via bispecific antibody B21-2/10H10; assay type: cell-based; conditions: for coagulation-inducing activity once localized on A20 cells via B21-2/10H10, in words (compared with tTF219): plasma coagulation; for concentration applied to the cells at which plasma coagulated in 50 seconds: A20 cells coated with B21-2/10H10, FIG. 5-8, 15; for fold less active than tTF219 at inducing coagulation of plasma: localized on A20 cells via B21-2/10H10
Protocol: This assay was used to verify that tTF, various derivatives and mutants thereof, and immunoglobulin-tTF conjugates acquire coagulation inducing activity once localized at a cell surface. A20 lymphoma cells (I-A^d positive) (2×10^6 cells/ml, 50 μl) were incubated for 1 h at room temperature with a bispecific antibody (50 μg/ml, 25 μl) consisting of a Fab′ arm of the B21-2 antibody directed against I-A^d linked to a Fab′ arm of the 10H10 antibody directed against a non-inhibitory epitope on tTF. The cells were washed at room temperature and varying concentrations of tTF, derivatives or mutants thereof, or immunoglobulin-tTF conjugates were added for 1 hour at room temperature. The bispecific antibody captures the tTF or tTF linked to immunoglobulin, bringing it into close approximation to the cell surface, where coagulation can proceed.
The cells were washed again at room temperature, resuspended in 75 μl of PBS and warmed to 37° C. […] The time for the first fibrin strands to form was recorded. Clotting time was plotted against tTF concentration and curves compared with standard curves prepared using standard tTF219 preparations.

[2] = system: factor X; test: Factor Xa production assay (chromogenic substrate S-2765) with constructs localized on A20 cells; assay type: biochemical; conditions: presence of Factors II, VII and IX, B21-2/10H10, FIG. 17
Protocol: The assay measures factor X to Xa conversion rate by means of a chromophore-generating substrate (S-2765) for factor Xa.
A20 cells (2×10^7 cells) were suspended in 10 ml medium containing 0.2% w/v sodium azide. To 2.5 ml cell suspension were added 6.8 μg of B21-2/10H10 “capture” bispecific antibody for 50 minutes at room temperature. The cells were washed and resuspended in 2.5 ml medium containing 0.2% w/v sodium azide. The tTF and immunoglobulin-tTF conjugates dissolved in the same medium were distributed in 100 μl volumes at a range of concentrations into wells of 96-well microtiter plates. To the wells was then added 100 μl of the cell/bispecific antibody suspension. The plates were incubated for 50 minutes at room temperature.
The plates were centrifuged, the supernatants were discarded and the cell pellets were resuspended in 250 μl of Wash Buffer (150 mM NaCl: 50 mM Tris-HCl, pH 8; 0.2% w/v bovine serum albumin). The cells were washed again and cells resuspended in 100 μl of a 12.5-fold dilution of Proplex T (Baxter, Inc.) containing Factors II, VII, IX and X in Dilution Buffer (Wash Buffer supplemented with 12.5 mM calcium chloride). Plates were incubated at 37° C. for 30 minutes. To each well was added Stop Solution (12.5 mM sodium ethylenediaminetetracetic acid (EDTA)) in wash buffer. Plates were centrifuged. […] The optical density of each solution was measured at 409 nm. […]

Molecule	coagulation-inducing activity once localized on A20 cells via B21-2/10H10, in words (compared with tTF219) [1]	concentration applied to the cells at which plasma coagulated in 50 seconds [1] [nM]	further results
B1	as active as tTF		
B2			activity at inducing Xa formation compared with H6—N′-cys-tTF219 [2]: as active as H6—N′-cys-tTF219 itself
B3		5	fold less active than tTF219 at inducing coagulation of plasma [1]: 5 fold; fold less active than H6—N′-cys-tTF219 at inducing Xa formation [2]: 2 fold
B4	as active as tTF219 itself		
B5	as active as tTF219	0.5	concentration applied to the cells at which plasma coagulated in 50 seconds ([1]; listed as H6-tTF221-cys-C′ monomer): 1 nM
B6		4	fold less active than tTF219 at inducing coagulation of plasma [1]: 4 fold
B7		3	
B8	as active as tTF219	0.5	
B9	as active as tTF219	0.5	
B10	as active as tTF219	0.5	
B11	as active as tTF	3	
